From the supplement of paper PMC9112550, “Optimization of the antimicrobial peptide Bac7 by deep mutational scanning” (BMC Biology, 2022)

test system: Escherichia coli TOP10; assay: shrunken log2 fold change of peptide-encoding DNA abundance (4.5 h post-induction vs induction); higher = less antimicrobial activity (less host growth inhibition); details: time post-induction: 4.5 h; library: site-saturation at positions 5, 18, 19, 20
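Also: peptides expressed intracellularly from a pBAD plasmid library in pooled LB shake-flask culture, induced with 0.3% L-arabinose, DNA abundance read by NGS, three biological replicates, DESeq2 with apeglm shrinkage.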

RRIRPRPPRLPRPRPRPTTAPRP and RRIRHRPPRLPRPRPRPVSFPRP are within 0.2 log units of each other in “shrunken log2 fold change” value: 0.0804 for the first, 0.00493 for the second.

Going from RRIRVRPPRLPRPRPRPKTRPRP to RRIRYRPPRLPRPRPRPQHIPRP, the “shrunken log2 fold change” value falls from 0.63 to -0.754.

RRIRYRPPRLPRPRPRPKLDPRP and RRIRLRPPRLPRPRPRPKNHPRP are within 0.2 log units of each other in “shrunken log2 fold change” value: -0.351 for the first, -0.269 for the second.

RRIRYRPPRLPRPRPRPGPWPRP and RRIRSRPPRLPRPRPRPESEPRP are within 0.2 log units of each other in “shrunken log2 fold change” value: 0.18 for the first, 0.0793 for the second.

RRIRGRPPRLPRPRPRPFWCPRP and RRIRWRPPRLPRPRPRPNAFPRP are within 0.2 log units of each other in “shrunken log2 fold change” value: -0.0505 for the first, 0.0579 for the second.

Compared with RRIRSRPPRLPRPRPRPQERPRP, RRIRCRPPRLPRPRPRPLPSPRP is higher in “shrunken log2 fold change” value: -0.0153 for the first, 0.214 for the second.

RRIRCRPPRLPRPRPRPGHTPRP and RRIRSRPPRLPRPRPRPILMPRP are within 0.2 log units of each other in “shrunken log2 fold change” value: -0.128 for the first, -0.172 for the second.

Compared with RRIRVRPPRLPRPRPRPRQYPRP, RRIRNRPPRLPRPRPRPPEYPRP is lower in “shrunken log2 fold change” value: 0.00898 for the first, -0.932 for the second.

RRIRWRPPRLPRPRPRPQAHPRP and RRIRYRPPRLPRPRPRPHCVPRP are within 0.2 log units of each other in “shrunken log2 fold change” value: 0.00175 for the first, -0.0324 for the second.

First: RRIRMRPPRLPRPRPRPPHWPRP
Second: RRIRRRPPRLPRPRPRPSWLPRP
The “shrunken log2 fold change” value of the first is higher: 0.898 for the first, 0.202 for the second.

Compared with RRIRMRPPRLPRPRPRPHLEPRP, RRIRTRPPRLPRPRPRPSYRPRP is lower in “shrunken log2 fold change” value: 0.0983 for the first, -0.271 for the second.

Compared with RRIRWRPPRLPRPRPRPFEVPRP, RRIRERPPRLPRPRPRPTNRPRP is lower in “shrunken log2 fold change” value: 0.0389 for the first, -0.242 for the second.

RRIRTRPPRLPRPRPRPNCFPRP and RRIRTRPPRLPRPRPRPTWIPRP are within 0.2 log units of each other in “shrunken log2 fold change” value: -0.0362 for the first, -0.0425 for the second.

RRIRCRPPRLPRPRPRPEYPPRP and RRIRKRPPRLPRPRPRPHPNPRP are within 0.2 log units of each other in “shrunken log2 fold change” value: 0.0734 for the first, 0.135 for the second.

RRIRVRPPRLPRPRPRPFPAPRP and RRIRKRPPRLPRPRPRPMHFPRP are within 0.2 log units of each other in “shrunken log2 fold change” value: -0.121 for the first, 0.0573 for the second.

RRIRIRPPRLPRPRPRPQKEPRP and RRIRHRPPRLPRPRPRPEKTPRP are within 0.2 log units of each other in “shrunken log2 fold change” value: -0.0177 for the first, 0.115 for the second.

First: RRIRNRPPRLPRPRPRPAPYPRP
Second: RRIRMRPPRLPRPRPRPTQNPRP
The “shrunken log2 fold change” value of the first is lower: 0.0296 for the first, 1.18 for the second.

Going from RRIRFRPPRLPRPRPRPGYTPRP to RRIRGRPPRLPRPRPRPVSNPRP, the “shrunken log2 fold change” value rises from -0.427 to 0.568.

First: RRIRRRPPRLPRPRPRPMRSPRP
Second: RRIRRRPPRLPRPRPRPLKNPRP
The “shrunken log2 fold change” value of the first is higher: 0.579 for the first, 0.29 for the second.

Compared with RRIRHRPPRLPRPRPRPKWHPRP, RRIRYRPPRLPRPRPRPTYSPRP is lower in “shrunken log2 fold change” value: -0.108 for the first, -0.443 for the second.

Compared with RRIRRRPPRLPRPRPRPYNSPRP, RRIRPRPPRLPRPRPRPPNAPRP is higher in “shrunken log2 fold change” value: -0.573 for the first, 0.435 for the second.

RRIRCRPPRLPRPRPRPFPNPRP and RRIRPRPPRLPRPRPRPYWNPRP are within 0.2 log units of each other in “shrunken log2 fold change” value: -0.0279 for the first, -0.151 for the second.

RRIRVRPPRLPRPRPRPQPCPRP and RRIRIRPPRLPRPRPRPEQLPRP are within 0.2 log units of each other in “shrunken log2 fold change” value: -0.0059 for the first, -0.148 for the second.

RRIRNRPPRLPRPRPRPERSPRP and RRIRQRPPRLPRPRPRPKIQPRP are within 0.2 log units of each other in “shrunken log2 fold change” value: 0.129 for the first, -0.0232 for the second.

First: RRIRWRPPRLPRPRPRPYCFPRP
Second: RRIRQRPPRLPRPRPRPRIKPRP
The “shrunken log2 fold change” value of the first is lower: -0.379 for the first, 0.127 for the second.

RRIRSRPPRLPRPRPRPSPMPRP and RRIRERPPRLPRPRPRPQIGPRP are within 0.2 log units of each other in “shrunken log2 fold change” value: -0.132 for the first, -0.0217 for the second.

Going from RRIRVRPPRLPRPRPRPTYRPRP to RRIRHRPPRLPRPRPRPESLPRP, the “shrunken log2 fold change” value rises from -0.594 to -0.245.

First: RRIRARPPRLPRPRPRPTLYPRP
Second: RRIRRRPPRLPRPRPRPEGMPRP
The “shrunken log2 fold change” value of the first is lower: -0.034 for the first, 1.27 for the second.

RRIRMRPPRLPRPRPRPTYPPRP and RRIRLRPPRLPRPRPRPFPIPRP are within 0.2 log units of each other in “shrunken log2 fold change” value: -0.0846 for the first, -0.0478 for the second.

Going from RRIRSRPPRLPRPRPRPQHNPRP to RRIRQRPPRLPRPRPRPSAEPRP, the “shrunken log2 fold change” value rises from -0.628 to 0.117.

RRIRMRPPRLPRPRPRPWAYPRP and RRIRVRPPRLPRPRPRPDGLPRP are within 0.2 log units of each other in “shrunken log2 fold change” value: -0.012 for the first, 0.0431 for the second.
